Laboratory results taken from PMC8764033, “Single-molecule analysis of specificity and multivalency in binding of short linear substrate motifs to the APC/C” (Nature Communications, 2022).
Where “and” joins values, the source holds several entries; their conditions need not be identical. Equal entries are not always repeated. Entries after “also recorded” stand apart in the source; their conditions may differ.

What was measured:
[1] = target: T1, APC/C^Cdc20 (Saccharomyces cerevisiae, UniProt P26309+P53068); test: SMOR assay, yeast APC/C^Cdc20; type: binding; details: for mean dwell time: representative of two independent experiments, ± SE, ligand ≤1 nM, buffer C + BSA
T1 construct: APC/C was purified from yeast cells; made in house; host or cells: APC/C from S. cerevisiae W303 strain NHY13 (Cdc16-TAP, Apc1-GFP, cdh1 deleted); Cdc20 from Sf9 (baculovirus)
Protocol: (§1) Yeast strains were derivatives of W303 and are listed in Supplementary Table 2. For APC/C purification, we used a strain carrying Cdc16-TAP and lacking Cdh1 (DOM1126); in most experiments, the strain also carried Apc1-GFP (NHY13). Yeast were grown in YPD media to OD600 = 0.8, collected and flash-frozen. Cells were lysed by bead beating in lysis buffer A (50 mM HEPES pH 7.5, 150 mM KCl, 10% glycerol, 0.2% Triton X-100, 63 µM B-glycerophosphate, 48 µM sodium fluoride, 1 µg ml^−1 pepstatin A, 1 µg ml^−1 leupeptin, 1 µg ml^−1 aprotinin, 1 mM PMSF, 1 mM DTT, 0.5 mM EDTA) and APC/C was purified using magnetic IgG beads. The beads were washed using wash buffer A (20 mM HEPES pH 7.5, 150 mM KCl, 10% Glycerol, 0.05% Triton X-100). After incubation with purified Cdh1 or Cdc20, the APC/C was cleaved off the beads with TEV protease in wash buffer A with 0.05% Tween-20 (for single-molecule studies) or 0.05% Triton X-100 (for ensemble assays such as ubiquitylation) and used immediately.
(§2) For all SMOR experiments, 24 × 50 mm high precision glass coverslips (Bioscience Tools) and drilled microscope slides were passivated with a combination of PEG and PEG-biotin (coverslips) or PEG only (slides) following a previously published protocol for SiMPull[31]. Reaction chambers (~20 µl) were created using double-sided tape and epoxy. Protein was immobilized on the surface with 0.2 mg ml^−1 NeutrAvidin in buffer C (20 mM HEPES pH 7.5, 150 mM KCl, 10% glycerol, 0.05% Tween-20, 1 mM DTT). Excess NeutrAvidin was washed away and incubated with either biotin-conjugated mouse monoclonal anti-Strep-Tag II antibody (LSBio, Cat. No. LS-C203632-100) or biotin-conjugated rabbit polyclonal anti-GFP antibody (Rockland, Cat. No. 600-406-215) diluted in buffer C + BSA (0.1 mg ml^−1; Molecular Biology Grade Bovine Serum Albumin). Activator WD40 and activated APC/C (typically 50 µl containing about 65 ng APC/C, of which only a small fraction is immobilized on the glass) were immobilized using anti-Strep-Tag II, while APC/C alone was immobilized with anti-GFP. SMOR results were similar when performed in the buffer (wash buffer B) used in polarization anisotropy.
To capture dynamic protein–protein interactions, dye-labeled substrate diluted in buffer C + BSA was added to the chamber containing immobilized proteins. Interactions were imaged by TIRF microscopy as described below. For optimal signal-to-noise ratio, peptide concentration was no greater than 1 nM. Protein substrates included Hsl1 aa 667–872 and a C-terminal HaloTag followed by a TAP tag, and were produced by translation in rabbit reticulocyte lysates using TnT Quick Coupled Transcription/Translation System (Promega) (see Supplementary Table 5 for plasmids). Protein was purified with magnetic IgG beads and labeled on the bead with JF549 or JF646 dye so that unbound dye could be washed away. Purified dye-labeled protein was then cleaved from the beads using TEV protease. Before adding substrate to the reaction chamber, oxygen scavenging reagents were added (10 nM protocatechuate-3,4-dioxygenase, 2.5 mM protocatechuic acid, and 1 mM Trolox)[41]. A detailed description of the SMOR analysis pipeline is found in Supplementary Note 1.
Microscopy was performed with a Nikon Eclipse TE2000-E with Perfect Focus with a 100 × 1.49na oil, Apo TIRF DIC N2, 0.13-0.2, WD0.12 objective. Movies were recorded using the Andor iXon DU-897E-CSO. For visualizing GFP-tagged protein, a 491 nm laser was used with an ET525/50 (Chroma) filter for emission. […]

[2] = test system: APC/C^Apc10-4A, Cdc20; test: SMOR assay, yeast APC/C^Apc10-4A, Cdc20; type: binding, Saccharomyces cerevisiae
Protocol: as §1, §2
To capture dynamic protein–protein interactions, dye-labeled substrate diluted in buffer C + BSA was added to the chamber containing immobilized proteins. Interactions were imaged by TIRF microscopy as described below. For optimal signal-to-noise ratio, peptide concentration was no greater than 1 nM. […]
(§3) Microscopy was performed with a Nikon Eclipse TE2000-E with Perfect Focus with a 100 × 1.49na oil, Apo TIRF DIC N2, 0.13-0.2, WD0.12 objective. Movies were recorded using the Andor iXon DU-897E-CSO. […]

[3] = target: T2, APC/C^apo (Saccharomyces cerevisiae, UniProt P38042+P53068); test: SMOR assay, yeast APC/C^apo (no activator); type: binding; details: Supplementary Table 1, single movie
T2 construct: APC/C was purified from yeast cells; made in house; host or cells: S. cerevisiae W303 strain NHY13 (Cdc16-TAP, Apc1-GFP, cdh1 deleted)
Protocol: as §1, with “immediately. […]” for “immediately.”
as §3

[4] = Supplementary Table 1, replicate 1 (movie listed first)
[5] = Supplementary Table 1, replicate 2 (movie listed second)

APC/C^Apc10-4A, Cdc20, sequence (P26309 whole entry): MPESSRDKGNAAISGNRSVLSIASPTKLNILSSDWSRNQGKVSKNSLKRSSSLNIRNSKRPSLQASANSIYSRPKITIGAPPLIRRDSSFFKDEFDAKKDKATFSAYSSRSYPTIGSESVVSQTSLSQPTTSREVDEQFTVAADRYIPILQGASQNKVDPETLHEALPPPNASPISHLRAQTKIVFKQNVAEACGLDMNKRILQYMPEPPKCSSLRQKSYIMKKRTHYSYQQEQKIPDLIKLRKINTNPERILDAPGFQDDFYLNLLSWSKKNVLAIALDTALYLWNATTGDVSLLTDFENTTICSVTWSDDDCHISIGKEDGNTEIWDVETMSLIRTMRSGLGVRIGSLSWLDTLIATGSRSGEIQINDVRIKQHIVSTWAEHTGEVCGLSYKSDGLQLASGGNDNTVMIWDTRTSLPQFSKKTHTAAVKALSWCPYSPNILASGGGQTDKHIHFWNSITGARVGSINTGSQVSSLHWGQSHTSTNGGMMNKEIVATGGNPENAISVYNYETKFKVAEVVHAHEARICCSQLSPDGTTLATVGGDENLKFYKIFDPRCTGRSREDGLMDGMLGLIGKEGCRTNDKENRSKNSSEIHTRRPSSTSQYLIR

B1: Hsl1^Halo KEN & D: Hsl1 fragment (amino acids 667–872) with C-terminal HaloTag, JF549-labeled (protein)
chain: QNSASKRSLYSLQSISKRSLNLNDLLVFDDPLPSKKPASENVNKSEPHSLESDSDFEILCDQILFGNALDRILEEEEDNEKERDTQRQRQNDTKSSADTFTISGVSTNKENEGPEYPTKIEKNQFNMSYKPSENMSGLSSFPIFEKENTLSSSYLEEQKPKRAALSDITNSFNKMNKQEGMRIEKKIQREQLQKKNDRPSPLKPIQ
modifications: JF549 or JF646 dye covalently bound to the HaloTag; left off: HaloTag, C-terminal, kept | TAP, C-terminal, cleaved
notes: Hsl1 fragment (amino acids 667–872) with C-terminal HaloTag, JF549-labeled
fold lower affinity/dwell time with APC/C^Cdc20 than with APC/C^Cdh1 (preference for APC/C^Cdh1) [1]: 600 fold
Dwell Time [1, 4]: 0.518 ± 0.032 s
Dwell Time [1, 5]: 0.396 ± 0.027 s
mean dwell time [1]: 0.518 ± 0.03 s and 0.518 s
mean dwell time ([1]; listed as Hsl1 fragment): 0.518 ± 0.03 s
binding (in words) [2]: the Apc10-4A mutations only slightly reduced Hsl1 dwell time with APC/C^Cdc20; also recorded: only slightly reduced by mutation of Apc10
Dwell Time [2, 4]: 0.449 ± 0.014 s
Dwell Time [2, 5]: 0.372 ± 0.027 s
mean dwell time ([2]; representative of two independent experiments, ± SE, ligand ≤1 nM, buffer C + BSA): 0.449 s
Dwell Time (in words) [3]: no binding
